What was measured:
[1] = target: T1, His-tagged SPIN1 (49–262) (mouse, UniProt Q61142 49-262); experiment: SEC; SPIN1–SPOCD1 fragment 1b complex purified on an S200 increase column before the nucleosome pull-down; conditions: both partners purified
T1 construct: mouse SPIN1 (Q61142), amino acids 49–262; 'Purified as above' would include cleavage of the tag, yet the protein is called His-tagged and detected by anti-His; source: E. coli BL21 (DE3), purified

[2] = target: T2, mouse SPIN1 (amino acids 49–262), recombinant, His tag cleaved (mouse, UniProt Q61142 49-262); experiment: pull-down; co-precipitation of recombinant proteins, Coomassie gel, n = 3; conditions: both partners purified
T2 construct: mouse SPIN1 (Q61142), amino acids 49–262; The SPIN1 construct was cleaved with GST–3C protease overnight; also called recombinant SPIN1; source: E. coli BL21 (DE3), purified (His-tag column, 3C cleavage, ion exchange, SEC)
T2 sequence (Q61142 49-262): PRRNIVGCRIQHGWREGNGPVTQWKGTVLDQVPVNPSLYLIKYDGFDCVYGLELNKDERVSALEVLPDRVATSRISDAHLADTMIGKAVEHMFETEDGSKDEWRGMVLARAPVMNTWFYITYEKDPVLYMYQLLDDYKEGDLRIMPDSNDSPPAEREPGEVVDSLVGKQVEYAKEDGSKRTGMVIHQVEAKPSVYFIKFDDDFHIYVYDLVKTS

T1 sequence (Q61142 49-262): as above

binding result [1]	binding result [2]	Binder
binds	–	His-tagged SPOCD1 fragment 1b (domain or fragment, mouse, UniProt B1ASB6 203-409, looked up, source: E. coli BL21 (DE3), purified) VTQEPLQSPALYPEVLTEDSTDQQEVQPAFVVGSPGTPPDPVGPEDKAQSGSRMELEQGLSAPANSCASSPEPLGGLDGAPLEQRRPTHVKKRPWTSPDDSSQDHAEGASKKDFPRLEARVPRGVKTVYYVYTGSGIRLVGAASSSQPGQIEPLEELDTNSARRKRRPTTAHPTPCQSDPSETENAEPHQQRAEDPGEQGMTPLDAG
–	binds	mouse GST–SPOCD1-F1b (amino acids 203–409), recombinant (domain or fragment, UniProt B1ASB6 203-409, looked up, pET-based backbone; also called GST–F1b; SPOCD1 fragment 1b; source: E. coli BL21 (DE3), purified (glutathione sepharose, dialysis)) VTQEPLQSPALYPEVLTEDSTDQQEVQPAFVVGSPGTPPDPVGPEDKAQSGSRMELEQGLSAPANSCASSPEPLGGLDGAPLEQRRPTHVKKRPWTSPDDSSQDHAEGASKKDFPRLEARVPRGVKTVYYVYTGSGIRLVGAASSSQPGQIEPLEELDTNSARRKRRPTTAHPTPCQSDPSETENAEPHQQRAEDPGEQGMTPLDAG

Reference: paper PMC11499256, “Two-factor authentication underpins the precision of the piRNA pathway” (Nature, 2024)
